Reference: US20260191982A1 (GENOME, published 2026)
“And” between values parts separate entries of the source, which are not always exact repeats. Equal entries are not always repeated.

T1: human BCAM overexpressed on HEK293FT cells (HEK293FT/hBCAM) (human, UniProt P50895 32-628)
T1 construct: whole, on cells; also called HEK293FT/hBCAM cells; BCAM-overexpressing HEK293 cells
T1 sequence (looked up): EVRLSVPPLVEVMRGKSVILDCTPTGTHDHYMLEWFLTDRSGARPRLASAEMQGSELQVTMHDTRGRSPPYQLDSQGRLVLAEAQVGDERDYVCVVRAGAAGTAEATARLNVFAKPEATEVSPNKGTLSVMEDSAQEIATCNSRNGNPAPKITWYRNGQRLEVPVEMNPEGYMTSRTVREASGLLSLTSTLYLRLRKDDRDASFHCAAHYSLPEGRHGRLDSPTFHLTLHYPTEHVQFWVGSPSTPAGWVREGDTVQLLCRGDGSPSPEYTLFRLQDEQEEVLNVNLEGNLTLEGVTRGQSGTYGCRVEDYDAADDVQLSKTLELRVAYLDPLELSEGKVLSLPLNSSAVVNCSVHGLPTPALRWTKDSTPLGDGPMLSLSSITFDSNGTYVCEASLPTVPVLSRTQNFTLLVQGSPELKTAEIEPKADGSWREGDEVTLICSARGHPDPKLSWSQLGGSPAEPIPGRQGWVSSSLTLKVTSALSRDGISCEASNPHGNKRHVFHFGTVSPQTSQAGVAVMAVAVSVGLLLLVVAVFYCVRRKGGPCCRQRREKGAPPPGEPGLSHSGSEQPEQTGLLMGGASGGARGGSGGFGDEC

T2: human BCAM recombinant protein (SinoBiological, USA) (human, UniProt P50895 32-547)
T2 construct: Bought protein; In the sandwich ELISA it was captured by a coated anti-His antibody, which implies a His tag; also called recombinant human BCAM protein; basal cell adhesion molecule
T2 sequence (looked up): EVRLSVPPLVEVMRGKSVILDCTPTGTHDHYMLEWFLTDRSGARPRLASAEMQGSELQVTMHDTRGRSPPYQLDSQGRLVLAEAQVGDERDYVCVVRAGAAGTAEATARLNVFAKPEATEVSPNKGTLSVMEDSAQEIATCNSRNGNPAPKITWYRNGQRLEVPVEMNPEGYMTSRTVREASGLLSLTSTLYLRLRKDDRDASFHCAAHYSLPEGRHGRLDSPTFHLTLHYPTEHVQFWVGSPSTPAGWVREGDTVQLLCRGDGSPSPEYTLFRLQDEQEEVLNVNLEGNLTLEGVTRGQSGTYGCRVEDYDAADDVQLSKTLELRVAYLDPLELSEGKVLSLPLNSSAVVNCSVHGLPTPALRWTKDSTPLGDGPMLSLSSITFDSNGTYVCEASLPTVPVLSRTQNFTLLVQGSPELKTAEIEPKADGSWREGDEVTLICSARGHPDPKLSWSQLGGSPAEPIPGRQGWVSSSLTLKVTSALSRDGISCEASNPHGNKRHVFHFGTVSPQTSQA


Tests used:
[1] = biological target: T1, human BCAM overexpressed on HEK293FT …; assay: flow cytometry on HEK293FT cells overexpressing human BCAM, geometric MFI
Procedure: The binding affinity of Ab1, Ab2 and Ab3 to HEK293FT cells overexpressing human BCAM (HEK293FT/hBCAM) was evaluated by flow cytometry analysis. HEK293FT cells (3.0×10⁶) were seeded to 10 cm cell culture dish and incubated for […], 5% CO₂ incubator. The next day, jetPRIME transfection reagent (20 μL) and human BCAM expression plasmid (10 μg) prepared in jetPRIME transfection buffer (200 μL) were mixed and incubated for 10 min at room temperature. The mixture was added to HEK293FT cells drop-wisely and incubated for 4 hr at 37° C., 5% CO₂ incubator. After 4 hr, the mixture from HEK293FT cells was replaced with fresh complete media and incubated for overnight. HEK293FT/hBCAM cells prepared at 1.0×10⁵ cells/100 μL in FACS buffer. The 100 μL of Ab1, Ab2 (3 pM~56 nM, serial 3-fold dilution, 10 points) and Ab3 (1.524 pM~30 nM, serial 3-fold dilution, 10 points), and HG4K IgG4 (SinoBiological, USA) and HG1K IgG1 (SinoBiological, USA) diluted with FACS buffer was added to cells and incubated for 30 min at 4° C. The cells were washed twice with 200 μL of FACS buffer, and then 1 μg/mL of secondary antibody (AlexaFlour® 647 AffiniPure Goat Anti-Human IgG (H+L), JacksonImmunoResearch, USA) diluted with FACS buffer was added to cells and incubated for 30 min at 4° C. in the dark. After washing twice with 200 μL of FACS buffer, and 7-AAD diluted with FACS buffer (1:100) was added to cells and transferred to FACS tubes for analysis. At least 1.0×10⁴ live cells per sample were read using FACSCantoII (BD, USA). The geometric mean fluorescence intensity for assessing the Ab1, Ab2 and Ab3 binding to hBCAM on HEK293FT/hBCAM cells was measured. The graphs were generated as sigmoidal dose-response curves and EC₅₀ values were determined by nonlinear regression with a four-parameter logistic equation using GraphPad Prism software (GraphPad Software Inc., San Diego, CA, USA). […] See FIGS. 20a and 20b and Table 1D and 1E.

[2] = biological target: T2, human BCAM recombinant protein …; assay: indirect ELISA, human BCAM coated on plate at 25 nM, anti-human IgG Fc-HRP detection
Procedure: The binding affinity of Ab1 and Ab2 to human BCAM recombinant protein was evaluated using an indirect ELISA (Enzyme-Linked Immunosorbent Assay) method. Human BCAM (SinoBiological, USA) diluted in PBS to 25 nM, and 50 μL of prepared proteins was added to 96-well half plate (Costar, USA) and incubated overnight at 4° C. Next day, solution containing human BCAM was removed, and the plate was washed 3 times with 150 μL of PBS-T (0.1% Tween-20 in PBS). The plate coated with human BCAM was blocked with 150 μL of 3% BSA blocking buffer for 1 hr at 37° C. Blocking buffer was removed, and 50 μL of Ab1 and Ab2 (6 pM~1 μM, serial 3-fold dilution, 12 points), and HG4K IgG4 (SinoBiological, USA) and HG1K IgG1 (SinoBiological, USA) diluted with blocking buffer was added to each well and incubated for 2 hr at 37° C. The plate was washed 3 times with 150 μL of PBS-T, and secondary antibody (HRP-conjugated anti-human IgG Fc antibody; ThermoFisher Scientific, USA) diluted with blocking buffer (1:100,000) was added to each well and incubated for 1 hr at 37° C. […] The absorbance (Optical density at 450 nm, OD₄₅₀) was measured at 450 nm using Synergy H1 (BioTek, Winooski, VT). The graphs were generated as sigmoidal dose-response curves and EC₅₀ values were determined by nonlinear regression with a four-parameter logistic equation using GraphPad Prism software (GraphPad Software Inc., San Diego, CA, USA).

[3] = biological target: T2, human BCAM recombinant protein …; assay: sandwich ELISA, human BCAM captured by coated anti-His antibody, anti-human IgG Fc-HRP detection
Procedure: The binding affinity of Ab1 and Ab3 to human BCAM recombinant protein was evaluated using sandwich ELISA (Enzyme-Linked Immunosorbent Assay) method. Anti-His antibody (Biolegend, USA) diluted in PBS to 4 μg/mL was added to 96-well plate (ThermoFisher Scientific, USA) and incubated overnight at 4° C. Next day, solution containing anti-his antibody was removed, and the plate was washed 3 times with 300 μL of PBS-T (0.1% Tween-20 in PBS). The plate coated with anti-his antibody was blocked with 300 μL of 3% skim milk blocking buffer for 1 hr at room temperature. Human BCAM (SinoBiological, USA) diluted in blocking buffer to 25 nM, and 100 μL of prepared proteins was added to 96-well plate and incubated for 1 hr at room temperature. The plate was washed 3 times with 300 μL of PBS-T, and 100 μL of Ab1 and Ab3 (6.4 pM~500 nM, serial 5-fold dilution, 8 points) diluted with blocking buffer was added to each well and incubated for 1 hr at room temperature. […] The absorbance (Optical density at […]) was measured at 450 nm using Synergy H1 (BioTek, Winooski, VT). The graphs were generated as sigmoidal dose-response curves and EC₅₀ values were determined by nonlinear regression with a three-parameter logistic equation using GraphPad Prism software (GraphPad Software Inc., San Diego, CA, USA).

Row | EC50 [1] | EC50 [2] | EC50 [3] | Binder
1 | 0.184 nM and 0.027 µg/mL | 0.112 nM | 1.28 nM and 0.192 µg/mL | Ab1 (anti-BCAM antibody, human IgG4 S228P isotype) (antibody, human IgG4 S228P isotype, lambda light chain; expressed in ExpiCHO-S cells) heavy: not shown light: LPVLTQPPSASGSPGQSVTISCTGTSSDVGGYNYVSWYQQHPGKAPKLMIYEVNKRPSGVPDRFSGSKSGNTASLTVSGLQAEDEADYYCCSYAGSNNYVFGTGTKVTVLGQPKAAPSVTLFPPSSEELQANKATLVCLISDFYPGAVTVAWKADSSPVKAGVETTTPSKQSNNKYAASSYLSLTPEQWKSHRSYSCQVTHEGSTVEKTVAPTECS
2 | 0.232 nM and 0.034 µg/mL | 0.078 nM |  | Ab2 (anti-BCAM antibody, human IgG1 isotype) (antibody, human IgG1 isotype) heavy: not shown light: LPVLTQPPSASGSPGQSVTISCTGTSSDVGGYNYVSWYQQHPGKAPKLMIYEVNKRPSGVPDRFSGSKSGNTASLTVSGLQAEDEADYYCCSYAGSNNYVFGTGTKVTVLGQPKAAPSVTLFPPSSEELQANKATLVCLISDFYPGAVTVAWKADSSPVKAGVETTTPSKQSNNKYAASSYLSLTPEQWKSHRSYSCQVTHEGSTVEKTVAPTECS
3 | 0.167 nM and 0.025 µg/mL |  | 1.31 nM and 0.197 µg/mL | Ab3 (anti-BCAM antibody, human IgG1 LALA isotype) (antibody, human IgG1 LALA isotype) heavy: not shown light: LPVLTQPPSASGSPGQSVTISCTGTSSDVGGYNYVSWYQQHPGKAPKLMIYEVNKRPSGVPDRFSGSKSGNTASLTVSGLQAEDEADYYCCSYAGSNNYVFGTGTKVTVLGQPKAAPSVTLFPPSSEELQANKATLVCLISDFYPGAVTVAWKADSSPVKAGVETTTPSKQSNNKYAASSYLSLTPEQWKSHRSYSCQVTHEGSTVEKTVAPTECS
